These results are taken from IntAct's records for PubMed 16814718.

To fix the notation:
B1: Recombination protein 107 (Saccharomyces cerevisiae), P21651 (parent)
chain: MVARGRTDEISTDVSEANSEHSLMITETSSPFRSIFSHSGKVANAGALEESDKQILEWAGKLELESMELRENSDKLIKVLNENSKTLCKSLNKFNQLLEQDAATNGNVKTLIKDLASQIENQLDKVSTAMLSKGDEKKTKSDSSYRQVLVEEISRYNSKITRHVTNKQHETEKSMRCTQEMLFNVGSQLEDVHKVLLSLSKDMHSLQTRQTALEMAFREKADHAYDRPDVSLNGTTLLHDMDEAHDKQRKKSVPPPRMMVTRSMKRRRSSSPTLSTSQNHNSEDNDDASHRLKRAARTIIPWEELRPDTLESEL
partner: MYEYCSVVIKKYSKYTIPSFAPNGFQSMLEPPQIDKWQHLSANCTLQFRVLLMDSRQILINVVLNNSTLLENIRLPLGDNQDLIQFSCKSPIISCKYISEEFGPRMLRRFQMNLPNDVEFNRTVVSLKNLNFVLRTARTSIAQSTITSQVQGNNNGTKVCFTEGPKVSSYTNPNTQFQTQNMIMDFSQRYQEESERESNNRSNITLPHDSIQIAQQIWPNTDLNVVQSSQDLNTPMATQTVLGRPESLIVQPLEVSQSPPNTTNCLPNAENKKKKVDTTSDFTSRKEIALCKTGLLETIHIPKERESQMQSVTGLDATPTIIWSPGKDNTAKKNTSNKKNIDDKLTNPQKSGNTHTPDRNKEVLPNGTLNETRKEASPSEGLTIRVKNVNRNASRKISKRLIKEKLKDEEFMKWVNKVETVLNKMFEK
B2: Recombination protein 107 (Saccharomyces cerevisiae), P21651 (parent)
chain: B1 chain
partner: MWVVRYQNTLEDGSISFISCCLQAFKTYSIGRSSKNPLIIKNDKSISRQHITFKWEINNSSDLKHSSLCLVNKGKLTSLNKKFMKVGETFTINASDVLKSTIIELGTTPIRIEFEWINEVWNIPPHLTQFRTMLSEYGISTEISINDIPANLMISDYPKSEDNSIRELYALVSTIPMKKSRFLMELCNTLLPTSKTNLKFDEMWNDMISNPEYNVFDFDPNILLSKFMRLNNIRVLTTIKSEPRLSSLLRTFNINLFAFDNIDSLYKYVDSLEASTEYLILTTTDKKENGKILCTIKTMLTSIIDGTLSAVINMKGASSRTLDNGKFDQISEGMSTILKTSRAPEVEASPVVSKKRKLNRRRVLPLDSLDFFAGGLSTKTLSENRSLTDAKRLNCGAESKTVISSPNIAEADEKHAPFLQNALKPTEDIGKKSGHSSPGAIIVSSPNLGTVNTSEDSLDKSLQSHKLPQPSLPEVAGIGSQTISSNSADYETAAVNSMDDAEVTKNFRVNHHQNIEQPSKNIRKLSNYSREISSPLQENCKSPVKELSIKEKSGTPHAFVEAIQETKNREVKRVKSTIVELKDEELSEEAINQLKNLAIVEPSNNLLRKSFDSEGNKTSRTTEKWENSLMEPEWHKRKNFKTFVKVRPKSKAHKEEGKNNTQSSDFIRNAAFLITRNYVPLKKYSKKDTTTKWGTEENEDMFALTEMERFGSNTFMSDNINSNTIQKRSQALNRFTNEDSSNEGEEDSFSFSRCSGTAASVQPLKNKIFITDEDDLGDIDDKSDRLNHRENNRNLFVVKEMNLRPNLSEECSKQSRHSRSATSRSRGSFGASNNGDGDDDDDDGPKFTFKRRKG
B3: Recombination protein 107 (Saccharomyces cerevisiae), P21651 (parent)
chain: B1 chain
partner: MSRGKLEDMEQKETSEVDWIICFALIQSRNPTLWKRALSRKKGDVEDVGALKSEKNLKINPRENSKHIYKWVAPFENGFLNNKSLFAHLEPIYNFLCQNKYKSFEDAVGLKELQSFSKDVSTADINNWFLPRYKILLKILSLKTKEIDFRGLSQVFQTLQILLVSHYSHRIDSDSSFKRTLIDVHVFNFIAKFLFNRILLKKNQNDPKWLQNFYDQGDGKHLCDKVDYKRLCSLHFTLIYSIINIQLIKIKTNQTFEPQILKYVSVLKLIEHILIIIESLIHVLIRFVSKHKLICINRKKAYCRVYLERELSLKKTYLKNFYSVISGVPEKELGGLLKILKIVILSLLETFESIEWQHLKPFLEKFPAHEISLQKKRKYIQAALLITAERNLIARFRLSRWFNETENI

The first assay covers variants of B1. The settings on record: with re114_yeast REC114, P32841.
As to S30A;S271A, the “effect of a mutation on the interaction” value is reported as “disrupting interaction strength”. The same measure, in the same setting: in the case of S271A it was “with no effect”; in that of S30A, “disrupting interaction strength”.

The next assay covers variants of B2. Particulars: with xrs2_yeast XRS2, P33301.
For S271A, the “effect of a mutation on the interaction” value is reported as “decreasing interaction strength”. Same read-out and setting: in the case of S30A;S271A it was “disrupting interaction strength”; in that of S30A, “disrupting interaction strength”.

The variants in the next assay derive from B3. Particulars: with mei4_yeast MEI4, P29467.
Take S271A: the “effect of a mutation on the interaction” value is recorded as “with no effect”. Turning to S30A, the “effect of a mutation on the interaction” value is “decreasing interaction strength”. On the same count and under the same terms, in the case of S30A;S271A it was “decreasing interaction strength”.
